Test results as given in patent publication US20260049134A1 (UNIVERSITY OF FLORIDA RESEARCH FOUNDATION, published 2026).
Substitutions are numbered along the chain they refer to. Names may count otherwise.

T1: IGSF11
T1 construct: also called IGSF11-Fc (R&D Systems)
T1 chain: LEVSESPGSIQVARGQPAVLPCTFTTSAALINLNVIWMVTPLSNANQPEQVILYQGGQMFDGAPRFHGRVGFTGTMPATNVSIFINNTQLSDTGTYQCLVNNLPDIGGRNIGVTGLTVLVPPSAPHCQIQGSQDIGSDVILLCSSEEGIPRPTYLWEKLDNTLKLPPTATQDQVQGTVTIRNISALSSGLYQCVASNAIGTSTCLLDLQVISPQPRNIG

T2: SELL
T2 construct: also called SELL-Fc-His (R&D Systems); L-Selectin
T2 chain: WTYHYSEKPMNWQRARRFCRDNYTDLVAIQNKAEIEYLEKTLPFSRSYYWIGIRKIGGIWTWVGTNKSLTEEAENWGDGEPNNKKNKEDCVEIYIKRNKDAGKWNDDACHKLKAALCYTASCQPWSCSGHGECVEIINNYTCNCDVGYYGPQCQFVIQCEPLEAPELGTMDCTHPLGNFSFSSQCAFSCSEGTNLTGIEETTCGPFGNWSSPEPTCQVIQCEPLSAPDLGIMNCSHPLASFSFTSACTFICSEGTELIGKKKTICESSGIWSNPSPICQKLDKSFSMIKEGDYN

T3: SELL (L-Selectin)
T3 construct: coated protein in the ELISA; also called SELL-Fc-His (R&D Systems)
T3 chain: T2 chain

B1: HW-42 chimeric rabbit-human IgG1 LA/LA/PG (antibody, V domains shown)
VH: QSVKESEGGLFKPADTLTLTCTVSGFSLSSNEISWVRQAPGEGLEYIGIIDTGGRAYYAVWARSRSTITRNTNLNTVTLKMTSLTAADTATYFCARGGVDTEWYAFSSWGPGTLVTVPS
VL: SFVLTQPASVQVNLGQTVSLTCTADTLSRRYASWYQQKPGQAPVLLIFRDTSRPSGVPDRFSGSSSGDTATLTISGAQAGDEADYYCATSDGSGSNYQYVFGGGTQLTVTG
notes: Fc-silenced (L234A/L235A/P329G) IgG1, lambda; Alexa Fluor 647-labeled in single-step flow cytometry; Cluster C-1
B2: HW-70 chimeric rabbit-human IgG1 LA/LA/PG (antibody, V domains shown)
VH: QSLEESGGRLVTPGTPLTLTCTVSGFSLSSNAMSWVRQAPGKGLEWIGTIDGYGYTYYASWAKGRFTVSKTSTTVDLKITSPTTEDTATYFCAREIYLGSNFWGPGTLVTISS
VL: B1 VL with F48Y, D68N, S90A, N96S, Y99F
notes: as for B1
B3: HW-25 chimeric rabbit-human IgG1 LA/LA/PG (antibody, V domains shown)
VH: QSLEESGGRLVTPGTPLTLTCTVSGFSLSSYAMGWVRQAPGKGLEWIGIIDSRGSTYYATWAKGRFTISKTSTTVDLKITSPTTEDTATYFCAREDSYYYDSFNLWGPGTLVTVSS
VL: B1 VL with F48Y, D68N, N96S, Y99C
notes: as for B1
B4: HW-1 chimeric rabbit-human IgG1 LA/LA/PG (antibody, V domains shown)
VH: QSLEESGGGLFKPTDTLTLTCTASGFSLGSSYAISWVRQAPGKELEWIGTIDSGRAYYARWAKSRSTITRNTNENTVTLKMTSLTAADTATYFCARDLIPTYSQDIWGPGTLVTISS
VL: B1 VL with F48Y, D68N, S95N, N96S, G111S
notes: Fc-silenced (L234A/L235A/P329G) IgG1, lambda; Alexa Fluor 647-labeled in single-step flow cytometry; Prototype of cluster C-1
B5: HW-17 chimeric rabbit-human IgG1 LA/LA/PG (antibody, V domains shown)
VH: QSLGESRGRLVTPDETLTLTCTVSGIDLSSNAMSWVRQAPGEGLEWIGTINTGGRAYYASWAKGRFTISRTSTTVDLKMTSLTTEDTATYFCARERYSDGRAYDIWGPGTLVTISS
VL: B1 VL with F48Y, R49T, T51S, S52N, V57I, D68N, S90D, N96I
notes: as for B1
B6: TH9-0022 (antibody, human IgG1, kappa, L234A L235A, V domains shown)
VH: QSLEESGGRLVTPGTPLTLTCTVSGFSLSSYAMNWVRQAPGKGLEWIGIINSYGSTYYASWAKGRFTISKTSTTVDLKITSPTTEDTATYFCARVTYDSYGYGYAPYGMDLWGPGTLVTVSS
VL: LVMTQTPSSTSNAVGGTVTIKCQASQSIGNVLAWYQQKPGQPPKLLIYAASTLASGVPSRVGGSRSGTEYTLTISGVQREDAATYYCLGSDSDSDIAFGGGTELEILR
notes: also called TH9-022; negative control IgG1
B7: HW-97 chimeric rabbit-human IgG1 LA/LA/PG (antibody, V domains shown)
VH: QKQLVESGGRLVTPGTPLTLTCTVTGIDLSSHGMSWVRQAPGKGLEWIGVIYPSGSTWYASWARGRFTISKTSTTVDLKMTSLTTEDTATHFCARGDVGGADNNIWGPGTLVTVSS
VL: B1 VL with N13D, D25E, R30S, F48Y, D68N, N96S
notes: Fc-silenced (L234A/L235A/P329G) IgG1, lambda; Alexa Fluor 647-labeled in single-step flow cytometry; Prototype of cluster C-97
B8: HW-101 chimeric rabbit-human IgG1 LA/LA/PG (antibody, V domains shown)
VH: QEQLVESGGRLVTPGTPLTLTCKASGFSLGKYDMSWVRQAPGKGLEWIGTIYAGSGSTWYASWAKGRFTISKTSTTVDLKMTSLTTEDTATYFCARDFLGVNSIWGPGTLVTISS
VL: B1 VL with R30S, G40D, F48H, S65N, D68N, Y97F, Q98H, Y99F
notes: Fc-silenced (L234A/L235A/P329G) IgG1, lambda; Alexa Fluor 647-labeled in single-step flow cytometry; Cluster C-97
B9: HW-113 chimeric rabbit-human IgG1 LA/LA/PG (antibody, V domains shown)
VH: QKQLVESGGGLVQPGGSLTLTCTVSGFSLNKYYMGWFRQAPGKGLEWIGVISRSGDTYYSSWAKGRFTISKASTTVDLRITSPTTEDTATYFCARDASSPGFHGDRLDLWGQGTLVTVSS
VL: B1 VL with R30S, F48Y, D68N, S93I, Q98L, Y99W
notes: Fc-silenced (L234A/L235A/P329G) IgG1, lambda; Alexa Fluor 647-labeled in single-step flow cytometry
B10: TH9-0022 (antibody, human IgG1, kappa, L234A L235A, V domains shown)
VH: B6 VH
VL: B6 VL
notes: also called TH9-022; negative control

Each binder was assayed against T4, PTPRG on U266 cells (human, UniProt P23470) (assay: flow cytometry, IgG1 on U266 cells).
T4 construct: endogenous on U266 multiple myeloma cells; also called HW-1 target on U266
T4 sequence (P23470 20-1445 limits assumed): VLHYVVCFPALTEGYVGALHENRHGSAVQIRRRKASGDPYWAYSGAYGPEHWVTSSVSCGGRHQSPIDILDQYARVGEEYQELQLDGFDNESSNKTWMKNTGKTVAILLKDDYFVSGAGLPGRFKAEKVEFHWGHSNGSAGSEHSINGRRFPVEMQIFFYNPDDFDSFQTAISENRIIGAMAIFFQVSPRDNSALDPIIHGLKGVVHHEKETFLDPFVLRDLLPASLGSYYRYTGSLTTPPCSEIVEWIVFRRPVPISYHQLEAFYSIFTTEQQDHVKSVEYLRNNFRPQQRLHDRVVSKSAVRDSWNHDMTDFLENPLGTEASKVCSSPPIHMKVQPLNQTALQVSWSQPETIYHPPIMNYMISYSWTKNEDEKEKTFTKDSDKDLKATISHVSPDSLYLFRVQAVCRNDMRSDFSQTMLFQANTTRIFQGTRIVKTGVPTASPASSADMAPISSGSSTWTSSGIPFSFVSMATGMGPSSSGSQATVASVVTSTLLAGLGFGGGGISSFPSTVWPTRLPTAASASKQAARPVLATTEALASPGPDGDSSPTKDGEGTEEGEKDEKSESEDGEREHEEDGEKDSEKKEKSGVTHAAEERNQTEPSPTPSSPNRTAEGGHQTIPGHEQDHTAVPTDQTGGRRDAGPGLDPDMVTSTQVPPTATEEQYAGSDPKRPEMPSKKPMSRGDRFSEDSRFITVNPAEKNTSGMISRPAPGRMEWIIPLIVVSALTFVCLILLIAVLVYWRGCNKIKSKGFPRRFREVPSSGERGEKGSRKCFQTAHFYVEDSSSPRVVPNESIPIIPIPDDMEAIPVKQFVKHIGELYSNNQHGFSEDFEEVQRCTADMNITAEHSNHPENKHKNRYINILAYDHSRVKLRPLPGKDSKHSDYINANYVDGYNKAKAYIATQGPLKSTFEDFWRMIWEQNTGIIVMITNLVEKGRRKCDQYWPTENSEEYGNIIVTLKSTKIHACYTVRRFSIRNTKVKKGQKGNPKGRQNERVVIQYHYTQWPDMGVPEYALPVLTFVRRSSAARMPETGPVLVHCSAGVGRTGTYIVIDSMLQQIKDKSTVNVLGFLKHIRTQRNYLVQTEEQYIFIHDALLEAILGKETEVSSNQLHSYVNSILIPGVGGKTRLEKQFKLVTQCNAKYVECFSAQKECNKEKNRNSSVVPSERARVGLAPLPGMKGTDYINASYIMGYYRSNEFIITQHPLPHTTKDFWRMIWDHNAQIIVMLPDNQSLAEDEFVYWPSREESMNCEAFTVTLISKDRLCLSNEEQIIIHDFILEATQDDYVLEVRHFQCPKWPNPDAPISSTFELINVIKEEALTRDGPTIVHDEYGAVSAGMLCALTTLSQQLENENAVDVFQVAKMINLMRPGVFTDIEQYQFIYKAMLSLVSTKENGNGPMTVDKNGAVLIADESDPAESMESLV
Protocol: Staining protocol. Cells were harvested (5×10⁴ cells per sample), washed once with phosphate-buffered saline (PBS) at RT, and a second time with ice-cold FACS buffer (PBS, 0.5% BSA, 2 mM EDTA, 0.1% NaN₃). Cells were stained in 50 μL of primary antibody for 30 min on ice, washed twice with 100 μL FACS buffer, stained with 50 μL of diluted secondary antibody, washed two more times in FACS, and then resuspended in 50 μL FACS buffer. Samples were acquired on an Accuri C6 Plus or a BD FACSCanto II flow cytometer (both from BD Biosciences). Data were analyzed using FlowJo version 10 software. Primary antibodies: Fab (10 μg/mL), IgG1 (0.1 to 50 μg/mL), or 25 μL polyclonal Fabs from periplasmic extracts. Polyclonal Fabs were produced by diluting bacterial stocks by a factor of 100 in autoinduction media and incubating overnight to induce expression as previously described. […] Viability stains: DAPI (Cell Signaling Technology) or SYTOX AADvanced Dead Cell Stain (Thermo Fisher Scientific). Labeling: The panel of chimeric rabbit/human IgG1s was labeled using the Alexa Fluor 647 Labeling Kit (Thermo Fisher Scientific, #A20173) to facilitate single-step staining. Competition: Unlabeled IgG1s were added at saturating concentrations of 60 μg/mL to block the target receptors, incubating on ice for 30 min, followed by the addition of an equal volume of the Alexa Fluor 647 labeled antibody at 2 μg/mL, and the mixture was incubated on ice for another 30 min.

| Binder | antibody-bound positive cells (%) |
| --- | --- |
| B1 | 64.5% |
| B2 | 76% |
| B3 | 69.6% |
| B4 | 84.4% |
| B5 | 85.2% |
| B6 | 6.5% |

Molecular target: T1, IGSF11
Assay: ELISA on coated protein
Protocol: (§1) Recombinant purified ECDs (50-150 ng) of each putative target protein were coated, incubated with 150 ng of the indicated primary antibody, and binding was detected using a peroxidase-conjugated anti-human Fab secondary antibody. Heatmap represents averages of technical triplicates. (8B) Target validation via siRNA knockdown. H929 cells were transfected with siRNA pools targeting the putative antibody targets ICAM1, CADM1, and PTPRG. Cells were then subjected to cognate IgG binding analysis via flow cytometry. (NT, non-targeting siRNA).
(§2) ELISA ELISA was conducted as described previously. Briefly, 50-150 ng of antigen was coated overnight in half-area 96-well plates at 4° C., blocked with 3% BSA at 37° C. for 1 h, and 150 ng of chimeric rabbit/human IgG1 was added, incubating for 2 h at 37° C. […] After incubating at 37° C. for 15 min-1 h (depending on intensity of controls), data were acquired using a SpectraMax M5 plate reader (Molecular Devices).

| Binder | binding result |
| --- | --- |
| B1 | no binding (tested: 150 ng IgG1 per well) |
| B2 | no binding (tested: 150 ng IgG1 per well) |
| B3 | no binding (tested: 150 ng IgG1 per well) |
| B4 | no binding (tested: 150 ng IgG1 per well) |
| B5 | no binding (tested: 150 ng IgG1 per well) |
| B7 | no binding (tested: 150 ng IgG1 per well) |
| B8 | no binding (tested: 150 ng IgG1 per well) |
| B9 | no binding (tested: 150 ng IgG1 per well) |
| B6 | no binding (tested: 150 ng IgG1 per well) |

Molecular target: T2, SELL
Assay: ELISA on coated protein
Protocol: as §1, §2

| Binder | binding result |
| --- | --- |
| B1 | no binding (tested: 150 ng IgG1 per well) |
| B2 | no binding (tested: 150 ng IgG1 per well) |
| B3 | no binding (tested: 150 ng IgG1 per well) |
| B4 | no binding (tested: 150 ng IgG1 per well) |
| B5 | no binding (tested: 150 ng IgG1 per well) |
| B7 | no binding (tested: 150 ng IgG1 per well) |
| B8 | no binding (tested: 150 ng IgG1 per well) |
| B9 | no binding (tested: 150 ng IgG1 per well) |
| B6 | no binding (tested: 150 ng IgG1 per well) |

Molecular target: T3, SELL (L-Selectin)
Assay: ELISA on coated SELL-Fc-His
Protocol: as §1, §2

| Binder | binding result |
| --- | --- |
| B10 | no binding (tested: 150 ng IgG1 per well) |
| B1 | no binding (tested: 150 ng IgG1 per well) |
| B2 | no binding (tested: 150 ng IgG1 per well) |
| B3 | no binding (tested: 150 ng IgG1 per well) |
| B4 | no binding (tested: 150 ng IgG1 per well) |
| B5 | no binding (tested: 150 ng IgG1 per well) |
| B7 | no binding (tested: 150 ng IgG1 per well) |
| B8 | no binding (tested: 150 ng IgG1 per well) |
| B9 | no binding (tested: 150 ng IgG1 per well) |
